Assay [1] concerns the target T1, recombinant human IL-4 (human, UniProt P05112 25-153).
T1 sequence (looked up): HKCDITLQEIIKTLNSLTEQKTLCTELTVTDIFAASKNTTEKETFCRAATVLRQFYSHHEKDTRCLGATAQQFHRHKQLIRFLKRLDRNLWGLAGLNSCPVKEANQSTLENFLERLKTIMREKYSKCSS
The assay is described as follows: cell-based or functional assay.

In assay [2] the target is T1, recombinant human IL-4. The assay is described as follows: cell-based or functional assay. This is another data set of the same source.
For assay [3], the target named is T2, recombinant cynomolgus monkey IL-4 (cynomolgus monkey, UniProt P79339 25-153).
T2 sequence (looked up): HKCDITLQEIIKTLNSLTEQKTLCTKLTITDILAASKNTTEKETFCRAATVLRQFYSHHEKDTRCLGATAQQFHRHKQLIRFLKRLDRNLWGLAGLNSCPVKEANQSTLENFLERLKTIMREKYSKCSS
Briefly: cell-based or functional assay.

Assay [4] concerns the target T1, recombinant human IL-4. Briefly: cell-based or functional assay. The source holds these as a separate data set.
The target in assay [5] is T3, recombinant human IL-13 (human, UniProt P35225 35-146). Briefly: cell-based or functional assay.
T3 sequence (P35225 35-146 limits assumed): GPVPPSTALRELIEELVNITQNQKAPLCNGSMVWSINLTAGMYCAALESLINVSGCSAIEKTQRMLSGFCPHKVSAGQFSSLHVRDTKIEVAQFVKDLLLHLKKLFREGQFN
The target of assay [6] is T3, recombinant human IL-13. Briefly: cell-based or functional assay. The source holds these as a separate data set.
For assay [7], the target named is T4, recombinant cynomolgus monkey IL-13 (cynomolgus monkey, UniProt Q0PW92 19-132). The assay is described as follows: cell-based or functional assay.
T4 sequence (Q0PW92 entry or part of it limits assumed): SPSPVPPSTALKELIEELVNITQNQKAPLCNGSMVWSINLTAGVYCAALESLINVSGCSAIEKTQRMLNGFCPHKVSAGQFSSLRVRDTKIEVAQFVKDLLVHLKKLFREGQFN
Assay [8] deals with T3, recombinant human IL-13. The assay is described as follows: cell-based or functional assay. This is another data set of the same source.
Assay [9] deals with T1, recombinant human IL-4. The assay is described as follows: KinExA, fixed antigen format. A general note: Kinetic exclusion samples the free partner from a solution-phase mixture.
Assay [10] addresses T2, recombinant cynomolgus monkey IL-4. Briefly: KinExA, fixed antigen format.
For assay [11], the target named is T3, recombinant human IL-13. The assay is described as follows: KinExA, fixed antigen format.
For assay [12], the target named is T4, recombinant cynomolgus monkey IL-13. Briefly: KinExA, fixed antigen format.
Assay [13] concerns the target T5, recombinant human IL-33 (R&D Systems 3625-IL), reduced with DTT (human, UniProt O95760 112-270, limits assumed).
T5 sequence (looked up): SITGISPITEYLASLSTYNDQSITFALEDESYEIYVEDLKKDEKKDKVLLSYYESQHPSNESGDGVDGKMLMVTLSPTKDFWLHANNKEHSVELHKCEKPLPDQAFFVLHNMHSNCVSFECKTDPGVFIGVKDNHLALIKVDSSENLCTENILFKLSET
Briefly: cell-based or functional assay.

Another assay addresses T6, human IL-33 mm2 Cys (human, UniProt O95760 112-270, limits assumed).
T6 sequence (looked up): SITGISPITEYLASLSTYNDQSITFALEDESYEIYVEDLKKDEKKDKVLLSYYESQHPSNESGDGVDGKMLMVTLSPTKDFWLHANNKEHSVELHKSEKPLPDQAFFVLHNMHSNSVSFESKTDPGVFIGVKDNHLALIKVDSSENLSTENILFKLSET
The assay is described as follows: cell-based or functional assay.

The target in assay [14] is T5, recombinant human IL-33 (R&D Systems …). Briefly: cell-based or functional assay. The source holds these as a separate data set.
Assay [15] shares this target. The assay is described as follows: cell-based or functional assay. This is another data set of the same source.
For assay [16], the target named is T7, biotinylated human IL-33 wild-type (WT), reduced with 3 mM DTT (human, UniProt O95760 112-270, limits assumed, biotinylated (site not stated)).
T7 sequence (looked up): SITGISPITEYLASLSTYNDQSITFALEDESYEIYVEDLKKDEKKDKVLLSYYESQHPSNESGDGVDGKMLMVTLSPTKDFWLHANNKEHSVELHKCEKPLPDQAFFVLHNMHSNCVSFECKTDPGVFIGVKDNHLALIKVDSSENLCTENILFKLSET
Briefly: KinExA solution affinity, fixed antigen format, global fit.

Where two headings read alike, the source gives them in different places.

B1: IL413TSLP-1024 (other)
heavy: not shown
chain 1: DIQMTQSPSSLSASVGDRVTITCKASESVDHFGWSLVHWYQQKPGKAPKLLIYRASNLESGVPSRFSGSGSGTDFTLTISSLQPEDFATYYCQQSNEDPWTFGGGTKVEIKRTVAAPSVFIFPPSDEQLKSGTASVVCLLNNFYPREAKVQWKVDNALQSGNSQESVTEQDSKDSTYSLSSTLTLSKADYEKHKVYACEVTHQGLSSPVTKSFNRGECGGGGSEVTLRESGPALVKPTQTLTLTCTFSGFSLSNFGEGLSWIRQPPGKGLEWLAHIYWDDDKRYNPSLKSRLTISKDTSRNQVVLTMTNMDPVDTATYYCARRETVFYWYFDVWGQGTTVTVSSASTKGPSVFPLAPSSKSTSGGTAALGCLVKDYFPEPVTVSWNSGALTSGVHTFPAVLQSSGLYSLSSVVTVPSSSLGTQTYICNVNHKPSNTKVDKKVEPKSCEKTHTCPPCPAPEAAGAPSVFLFPPKPKDTLMISRTPEVTCVVVDVSHEDPEVKFNWYVDGVEVHNAKTKPREEQYNSTYRVVSVLTVLHQDWLNGKEYKCKVSNKALPAPIEKTISKAKGQPREPQVYTLPPSREEMTKNQVSLTCEVKGFYPSDIAVEWESNGQPENNYKTTPPVLDSDGSFFLYSKLTVDKSRWQQGNVFSCSVLHEALHSHYTQKSLSLSPGK
light 1: SYVLTQPPSVSVAPGQTARITCGGNNLGSKSVHWYQQKPGQAPVLVVYDDKDRPSWIPERFSGSNSGNTATLTISRGEAGDEADYYCQVWDSKSDHVVFGGGTKLTVLGQPKAAPSVTLFPPSSEELQANKATLVCLISDFYPGAVTVAWKADSSPVKAGVETTTPSKQSNNKYAASSYLSLTPEQWKSHRSYSCQVTHEGSTVEKTVAPTECS
light 2: DIQMTQSPSSLSASVGDRVTITCRASQSVDEEGDSYMNWYQQKPGKAPKLLIYAASNLESGVPSRFSGSGSGTDFTLTISSLQPEDFATYYCQQSNKDPPTFGGGTKVEIKRTVAAPSVFIFPPSDEQLKSGTASVVCLLNNFYPREAKVQWKVDNALQSGNSQESVTEQDSKDSTYSLSSTLTLSKADYEKHKVYACEVTHQGLSSPVTKSFNRGEC
chain 2: EVQLVESGGGLVQPGGSLRLSCAASGFTFSSYAMSWVRQAPGKGLEWVASISSGDTTYYPDSVKGRFTISRDNAKNSLYLQMNSLRAEDTAVYYCARNEGYYFGLTLWGQGTLVTVSSASTKGPSVFPLAPSSKSTSGGTAALGCLVKDYFPEPVTVSWNSGALTSGVHTFPAVLQSSGLYSLSSVVTVPSSSLGTQTYICNVNHKPSNTKVDKKVEPKSC
notes: Trispecific Tri-Fab-Fc, dual cell, RR-EE, LS; Chains in order: SFab HC(3), DFab LC(1)-HC(2), SFab LC(3), DFab LC(2), modified Fd(1)
A word on the Kd: it is the concentration at which binding is half-saturated. Regarding B1, the “IC50 (median), IL-4 induced CD23 expression on human monocytes” value with recombinant human IL-4 [1] and with recombinant human IL-4 [4] was 8.27 pM throughout. Further, the “IC50 (median), CD23 expression, Human Whole Blood” value is 23.6 pM in the assay with recombinant human IL-4 [2], 16.4 pM in assay [3], 10.2 pM with recombinant human IL-13 [6] and 41.9 pM in [7]. For the same molecule, the “IC50 (median), CD23 expression, Peripheral Blood Monocytes” value with recombinant human IL-4 [2] was 8.27 pM; in [3] it was 10.1 pM; with recombinant human IL-13 [6], 13 pM; in assay [7] it was 31.6 pM. In addition, the “IC50 (median), IL-13 induced CD23 expression on human monocytes” value in the assay with recombinant human IL-13 [5] and in the assay with recombinant human IL-13 [8] was 13 pM each time. For the same molecule, the Kd in the assay with recombinant human IL-4 [9] was 0.323 pM; in assay [10], less than 0.661 pM; with recombinant human IL-13 [11], 0.266 pM; in [12] it was 0.581 pM.

B2: IL33-0232 (antibody, human IgG1, kappa, V domains shown)
VH: EVQLVESGGGLVQPGGSLRLSCAASGFTFSSYWMYWVRQAPGKGLEWVAAITPNAGEDYYPESVKGRFTISRDNAKNSLYLQMNSLRAEDTAVYYCARGHYYYTSYSLGYWGQGTLVTVSS
VL: DIQMTQSPSSLSASVGDRVTITCKASQNINKHLDWYQQKPGKAPKLLIYFTNNLQTGVPSRFSGSGSGTDFTLTISSLQPEDFATYYCFQYNQGWTFGGGTKVEIKR
For the molecule B2, the “IC50 [pM] versus human reduced IL-33 (R&D), Experiment 1 (HEK-Blue SEAP)” value in assay [13] was found to be 35 pM. Moreover, the “IC50 [pM] versus human IL-33 mm2 Cys (HEK-Blue SEAP)” value with human IL-33 mm2 Cys was 142 pM. The “IC50 [nM] versus reduced human IL-33 (R&D), IC50 (AVE)” value in assay [14] came out at 0.071 nM; in assay [15], 0.109 nM. This molecule also gave a Kd in assay [16] of 3.4 pM.

The values above are taken from US20240117030A1 (Pfizer, published 2024).
